Experimental data: paper PMC8600086
“And” between values parts separate entries of the source, which are not always exact repeats. Equal entries are not always repeated.

Target: recombinant MH8SR-tagged PfKelch13^337-726 (Plasmodium falciparum)
Test: SEC

In the case of “recombinant MH8SR-tagged PfKelch13^337-726 (domain or fragment)”, the stoichiometry N is reported as 2 and 4.
